Test results reported in patent US20260263521A1 (AIMED BIO, published 2026).

Legend:
[1] = target: T1, human CD200R1 expressed on cells (Jurkat-CD200R1, U937-CD200R1, HH cells) (human, UniProt Q8TD46 25-348); assay: cell-based or functional assay
T1 sequence (looked up): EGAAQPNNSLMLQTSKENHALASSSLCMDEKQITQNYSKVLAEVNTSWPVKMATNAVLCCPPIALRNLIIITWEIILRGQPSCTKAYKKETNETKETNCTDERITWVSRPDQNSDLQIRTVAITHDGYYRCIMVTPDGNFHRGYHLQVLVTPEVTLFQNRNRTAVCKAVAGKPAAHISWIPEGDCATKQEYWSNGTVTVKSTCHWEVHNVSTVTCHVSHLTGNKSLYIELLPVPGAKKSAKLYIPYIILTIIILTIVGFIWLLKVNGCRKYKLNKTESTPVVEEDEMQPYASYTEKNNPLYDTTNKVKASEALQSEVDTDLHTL

[2] = target: T1, human CD200R1 expressed on cells …; assay: flow cytometry, U937-CD200R cells
Procedure: Two additional wells were treated with 10 μl of mouse IgG1K (BD, #555751) and 5 μl of commercial CD200R1 antibody (Biolegend, #329308) to determine CD200R1 expression on the cell line surface for cell quality control.
The antibodies were serially diluted 10-fold from a maximum concentration of 100 nM to 10 nM, 1 nM, […], and were added to the pre-seeded cells. After reaction for 1 hour at 4° C., the cells were treated with Alexa-647 goat anti-human IgG (H+L) cross-adsorbed secondary antibody (Invitrogen, #A21445) and incubated for an additional 30 minutes at 4° C. After washing twice with FACS buffer, flow cytometry was performed using a Novocyte Flow cytometer (Agilent). Using GraphPad Prism software, the EC₅₀ was determined using a nonlinear graph model of log (agonist) vs. response-variable slope, as shown in Table 32.

[3] = target: T1, human CD200R1 expressed on cells …; assay: flow cytometry on Jurkat-CD200R1 and HH cells, 500 nM antibody in IgG1 form
Outline: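 Cells at 1×10⁵ per well incubated with antibody 1 h at 4 °C, then Alexa-647 anti-human IgG (H+L) secondary for 30 min at 4 °C. After two washes, binding read by flow cytometry.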

[4] = target: T2, human CD200R1 recombinant protein (construct not stated) (human, UniProt Q8TD46 27-266, limits assumed); assay: ELISA on human CD200R1, normalized absorbance at 450 nm, 0.0192-300 nM; panel 'Human CD200R1'
T2 sequence (looked up): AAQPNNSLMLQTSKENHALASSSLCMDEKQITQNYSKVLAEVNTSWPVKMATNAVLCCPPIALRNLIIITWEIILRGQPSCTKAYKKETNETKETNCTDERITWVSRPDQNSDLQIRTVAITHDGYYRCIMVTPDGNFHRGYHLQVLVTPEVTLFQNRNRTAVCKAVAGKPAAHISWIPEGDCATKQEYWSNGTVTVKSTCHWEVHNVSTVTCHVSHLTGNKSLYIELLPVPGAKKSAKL

[5] = target: T3, monkey CD200R1 (ELISA antigen of Example 14) (monkey); assay: ELISA on monkey CD200R1, normalized absorbance at 450 nm, 0.0192-300 nM; panel 'Cyno CD200R1'
T3 chain: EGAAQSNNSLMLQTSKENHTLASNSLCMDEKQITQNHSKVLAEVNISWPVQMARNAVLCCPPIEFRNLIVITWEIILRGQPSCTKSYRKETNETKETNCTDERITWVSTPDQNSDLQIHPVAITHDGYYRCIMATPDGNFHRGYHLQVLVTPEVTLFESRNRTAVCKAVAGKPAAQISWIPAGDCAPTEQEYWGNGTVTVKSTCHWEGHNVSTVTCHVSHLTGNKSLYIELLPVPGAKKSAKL

[6] = target: T4, human CD200RLa (Sino Biological, 11620-H08H) recombinant protein (human, UniProt Q6Q8B3 24-239); assay: ELISA, plate-bound human CD200RLa (2 ug/mL), antibody 0.0192-300 nM, O.D 450 nm; panel 'recombinant human CD200RLa'
T4 construct: Bought; construct not described
T4 sequence (looked up): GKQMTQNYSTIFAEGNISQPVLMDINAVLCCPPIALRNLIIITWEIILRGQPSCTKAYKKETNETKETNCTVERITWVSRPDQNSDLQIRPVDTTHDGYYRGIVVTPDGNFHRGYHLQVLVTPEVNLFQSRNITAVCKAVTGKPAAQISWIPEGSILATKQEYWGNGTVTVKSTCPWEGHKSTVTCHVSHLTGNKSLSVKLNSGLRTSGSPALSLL
Outline: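 Plates coated overnight (16 h, 4° C) with human or cynomolgus CD200RLa recombinant protein, blocked with 3% skim milk; bound antibody detected by TMB colour development, reaction stopped before reading.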

[7] = target: T5, recombinant human CD200R1 Fc chimera protein, CF (R&D systems, 3414-CD) (human, UniProt Q8TD46 27-266); assay: ELISA, plate-bound human CD200R1-Fc (2 ug/mL), IgG 0.0192-300 nM, anti-human IgG F(ab')2-HRP, OD 450 nm; panel 'human CD200R1'
T5 construct: Bought; also called CD200R1-Fc protein; human CD200R1 Fc protein; Fc part of the bought chimera not given
T5 sequence (looked up): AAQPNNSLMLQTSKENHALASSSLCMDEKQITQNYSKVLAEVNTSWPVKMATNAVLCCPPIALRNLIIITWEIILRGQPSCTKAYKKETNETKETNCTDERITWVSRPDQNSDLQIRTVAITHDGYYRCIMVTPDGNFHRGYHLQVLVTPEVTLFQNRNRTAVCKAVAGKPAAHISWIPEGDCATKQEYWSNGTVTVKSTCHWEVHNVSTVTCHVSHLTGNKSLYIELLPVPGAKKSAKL
Procedure: 96-well plates were coated with human CD200R1 (R&D systems, 3414-CD) and mouse CD200R1 protein (R&D systems, 2554-CD) at a concentration of 2 μg/mL at 4° C. for 16 hours and then were blocked with 3% skim milk.
Color was developed with a TMB substrate solution (Thermo Scientific, 34029, 1-Step™ TMB-ELISA Ultra Substrate Solution). The color reaction was stopped with stop solution (Invitrogen, SS04, ELISA Stop Solution). The absorbance was measured at an optical density of 450 nm.

EC50 (read off the curve) [5]: ~5 nM | binding result [6]: no binding (tested: 300 nM)
B1: P001009 (IgG) (antibody, V domains shown)
VH: EVQLLESGGGLVQPGGSLRLSCAASGFTFSSYDMSWVRQAPGKGLEWVSWISHGGGSIYYADSVKGRFTISRDNSKNTLYLQMNSLRAEDTAVYYCARDAPAYSAPLFDYWGQGTLVTVSS
VL: QSVLTQPPSASGTPGQRVTISCSGSSSNIGNNAVNWYQQLPGTAPKLLIYYDSNRPSGVPDRFSGSKSGTSASLAISGLRSEDEADYYCAAWDDSLSGYVFGGGTKLTVL
notes: also called P001009 WT; P001009 wt
IC50 (nM) of IL-6 inhibition, LPS-treated U937-CD200R1 cells [1]: 0.35 nM | IC50 (nM) of TNF-α inhibition, LPS-treated U937-CD200R1 cells [1]: 0.62 nM | EC50 [2]: 0.41 nM | MFI normalized to P001017 (chimeric OX108), % [3]: > 50% | EC50 (read off the curve) [4]: ~2 nM | EC50 (read off the curve) [7]: ~0.5 nM
